The target in assay [1] is LAG-3 (as used in the Biacore assay) (UniProt P18627). The assay is described as follows: Biacore (SPR); format not described. In general terms: SPR reads the build-up and loss of mass on a sensor chip optically.
Assay [2] has as its target LAG-3 (in the in vitro cell-based assays) (UniProt P18627). Kind of assay: in vitro cell-based assays; format not described.
Another assay concerns the target soluble LAG-3 (human) (UniProt P18627). The assay is described as follows: population PK/PD target-mediated drug disposition model (quasi-equilibrium) fitted to antibody and total soluble LAG-3 concentrations in patient serum; model estimate.

B1: LAG525 (antibody, INN chains, looked up, V domains shown)
VH: QVQLVQSGAEVKKPGASVKVSCKASGFTLTNYGMNWVRQARGQRLEWIGWINTDTGEPTYADDFKGRFVFSLDTSVSTAYLQISSLKAEDTAVYYCARNPPYYYGTNNAEAMDYWGQGTTVTVSS
VL: DIQMTQSPSSLSASVGDRVTITCSSSQDISNYLNWYLQKPGQSPQLLIYYTSTLHLGVPSRFSGSGSGTEFTLTISSLQPDDFATYYCQQYYNLPWTFGQGTKVEIK
For B1, the Kd (usually a measure of binding affinity in units of concentration) is 0.1 nM in assay [1], 1.9 to 2.3 nM in assay [2] and 1.5 nM in the assay with soluble LAG-3 (human).

These data come from patent US20200172617A1.
